Consider one substance from patent publication US20150353911.

For the substance thrombin, in the series on Compound 1, the “cleavage rate with 14 nM thrombin (HPLC, decrease of peptide peak area)” value is reported as “at least 10-fold increase in cleavage rate compared to that of Compound 2”; the “fraction cleaved and released with 1.4 nM thrombin (HPLC)” value was 30% of Compound 1 was quickly cleaved and released. Moreover, in the series on Compound 4, the “cleavage by 1.4 nM thrombin (HPLC)” value was “Compound 1 was a better substrate for thrombin than Compounds 4 and 5”. In addition, the “cleavage by 1.4 nM thrombin (HPLC)” value in the series on Compound 5 is “Compound 1 was a better substrate for thrombin than Compounds 4 and 5”. The “release of peptide IVGGQE with 1.4 nM thrombin (HPLC)” value in the series with Compound 6 is “thrombin-mediated release of peptide IVGGQE from Compound 6 without PABC linker was not observed”. The “amidolytic activity (chromozyme t-PA substrate) before and after thrombin activation” value with FVII-133 is reported as “FVII-212 displayed no activity prior to thrombin activation. Following thrombin activation, the amidolytic activity associated with FVII-212 was greater than that observed for equal molar levels of rFVIIa”. Besides, the “clotting activity by ROTEM in human hemophilia A blood” value in the series on FVII-184 was “Inactivating the thrombin cleavage site of FVII133 considerably reduced the activity; as the activity of FVII-184, which only became detectable at 50 nM, was much lower than that of FVIIa”.
